According to patent US20230002480A1:

Tests used:
Assay in all cases: cell-based or functional assay
[1] = target: HIV-1 Env of pseudovirus ZM247v1(Rev-) (HIV-1)
[2] = target: HIV-1 Env of pseudovirus Du422.1 (HIV-1)
[3] = target: HIV-1 Env of pseudovirus CNE53 (HIV-1)
[4] = target: HIV-1 Env of pseudovirus Q769.d22 (HIV-1)
[5] = target: HIV-1 Env of pseudovirus 249M B10 (HIV-1)
[6] = target: HIV-1 Env of pseudovirus PVO.4 (HIV-1)
[7] = target: HIV-1 Env of pseudovirus CNE17 (HIV-1)
[8] = target: HIV-1 Env of pseudovirus 1056_10_TA11_1826 (HIV-1)
[9] = target: HIV-1 Env of pseudovirus 6535.3 (HIV-1)
[10] = target: HIV-1 Env of pseudovirus Q842.d12 (HIV-1)
[11] = target: HIV-1 Env of pseudovirus Q461.e2 (HIV-1)
[12] = target: HIV-1 Env of pseudovirus TRJO4551.58 (HIV-1)
[13] = target: HIV-1 Env of pseudovirus 1394C9G1(Rev-) (HIV-1)
[14] = target: HIV-1 Env of pseudovirus CAP45.2.00.G3 (HIV-1)
[15] = target: HIV-1 Env of pseudovirus Du156.12 (HIV-1)
[16] = target: HIV-1 Env of pseudovirus 6240_08_TA5_4622 (HIV-1)
[17] = target: HIV-1 Env of pseudovirus HIV-001428-2.42 (HIV-1)
[18] = target: HIV-1 Env of pseudovirus HIV-0013095-2.11 (HIV-1)
[19] = target: HIV-1 Env of pseudovirus Ce2060_G9 (HIV-1)
[20] = target: HIV-1 Env of pseudovirus Q23.17 (HIV-1)

Question: N49P9 (antibody) was tested. Which IC50 [1] did it give?
Answer: 0.622 µg/mL

Question: And the IC80 [1]?
Answer: 3.3 µg/mL

Question: And the MPI [1]?
Answer: 100

Question: And the IC50 [2]?
Answer: > 50 µg/mL

Question: What about the IC80 [2] of the same substance?
Answer: > 50 µg/mL

Question: And the MPI [2]?
Answer: 17

Question: And the IC50 [3]?
Answer: 0.123 µg/mL

Question: And the IC80 [3]?
Answer: 0.462 µg/mL

Question: What about the MPI [3] of the same substance?
Answer: 99

Question: And the IC50 [4]?
Answer: 0.036 µg/mL

Question: What about the IC80 [4] of the same substance?
Answer: 0.123 µg/mL

Question: And the MPI [4]?
Answer: 100

Question: What about the IC50 [5] of the same substance?
Answer: 0.203 µg/mL

Question: What about the IC80 [5] of the same substance?
Answer: 1.41 µg/mL

Question: And the MPI [5]?
Answer: 97

Question: What about the IC50 [6] of the same substance?
Answer: 0.179 µg/mL

Question: What about the IC80 [6] of the same substance?
Answer: 0.628 µg/mL

Question: And the MPI [6]?
Answer: 100

Question: What about the IC50 [7] of the same substance?
Answer: 0.364 µg/mL

Question: What about the IC80 [7] of the same substance?
Answer: 1.7 µg/mL

Question: And the MPI [7]?
Answer: 100

Question: What about the IC50 [8] of the same substance?
Answer: 0.386 µg/mL

Question: What about the IC80 [8] of the same substance?
Answer: 1.32 µg/mL

Question: What about the MPI [8] of the same substance?
Answer: 100

Question: And the IC50 [9]?
Answer: 0.552 µg/mL

Question: What about the IC80 [9] of the same substance?
Answer: 2.26 µg/mL

Question: And the MPI [9]?
Answer: 100

Question: And the IC50 [10]?
Answer: 0.019 µg/mL

Question: And the IC80 [10]?
Answer: 0.057 µg/mL

Question: And the MPI [10]?
Answer: 100

Question: And the IC50 [11]?
Answer: 0.271 µg/mL

Question: What about the IC80 [11] of the same substance?
Answer: 0.953 µg/mL

Question: And the MPI [11]?
Answer: 100

Question: What about the IC50 [12] of the same substance?
Answer: 0.036 µg/mL

Question: What about the IC80 [12] of the same substance?
Answer: 0.128 µg/mL

Question: And the MPI [12]?
Answer: 100

Question: And the IC50 [13]?
Answer: > 50 µg/mL

Question: What about the IC80 [13] of the same substance?
Answer: > 50 µg/mL

Question: What about the MPI [13] of the same substance?
Answer: 40

Question: And the IC50 [14]?
Answer: 0.294 µg/mL

Question: And the IC80 [14]?
Answer: 1.99 µg/mL

Question: And the MPI [14]?
Answer: 98

Question: What about the IC50 [15] of the same substance?
Answer: 0.043 µg/mL

Question: What about the IC80 [15] of the same substance?
Answer: 0.13 µg/mL

Question: And the MPI [15]?
Answer: 100

Question: What about the IC50 [16] of the same substance?
Answer: 0.308 µg/mL

Question: What about the IC80 [16] of the same substance?
Answer: 1.26 µg/mL

Question: What about the MPI [16] of the same substance?
Answer: 100

Question: What about the IC50 [17] of the same substance?
Answer: 0.022 µg/mL

Question: And the IC80 [17]?
Answer: 0.106 µg/mL

Question: And the MPI [17]?
Answer: 99

Question: What about the IC50 [18] of the same substance?
Answer: 0.179 µg/mL

Question: What about the IC80 [18] of the same substance?
Answer: 0.635 µg/mL

Question: And the MPI [18]?
Answer: 100

Question: What about the IC50 [19] of the same substance?
Answer: 0.419 µg/mL

Question: And the IC80 [19]?
Answer: 2.19 µg/mL

Question: And the MPI [19]?
Answer: 100

Question: What about the IC50 [20] of the same substance?
Answer: 0.032 µg/mL

Question: What about the IC80 [20] of the same substance?
Answer: 0.091 µg/mL

Question: What about the MPI [20] of the same substance?
Answer: 100

Question: What does the source list for N49P19 (antibody)?
Answer: IC50 [1]: > 50 µg/mL; IC80 [1]: > 50 µg/mL; MPI [1]: 5; IC50 [2]: > 50 µg/mL; IC80 [2]: > 50 µg/mL; MPI [2]: 30; IC50 [3]: 1.5 µg/mL; IC80 [3]: > 50 µg/mL; MPI [3]: 78; IC50 [4]: 0.14 µg/mL; IC80 [4]: 0.519 µg/mL; MPI [4]: 100; IC50 [5]: > 50 µg/mL; IC80 [5]: > 50 µg/mL; MPI [5]: 39; IC50 [6]: 0.85 µg/mL; IC80 [6]: 2.95 µg/mL; MPI [6]: 100; IC50 [7]: > 50 µg/mL; IC80 [7]: > 50 µg/mL; MPI [7]: 30; IC50 [8]: 0.925 µg/mL; IC80 [8]: 3.15 µg/mL; MPI [8]: 100; IC50 [9]: 9.09 µg/mL; IC80 [9]: 28.3 µg/mL; MPI [9]: 95; IC50 [10]: 0.182 µg/mL; IC80 [10]: 0.601 µg/mL; MPI [10]: 100; IC50 [11]: 0.774 µg/mL; IC80 [11]: 4.05 µg/mL; MPI [11]: 100; IC50 [12]: 1.23 µg/mL; IC80 [12]: 5.4 µg/mL; MPI [12]: 99; IC50 [13]: > 50 µg/mL; IC80 [13]: > 50 µg/mL; MPI [13]: 17; IC50 [14]: > 50 µg/mL; IC80 [14]: > 50 µg/mL; MPI [14]: 5; IC50 [15]: 2.17 µg/mL; IC80 [15]: 17 µg/mL; MPI [15]: 87; IC50 [16]: 2.1 µg/mL; IC80 [16]: 7.52 µg/mL; MPI [16]: 100; IC50 [17]: > 50 µg/mL; IC80 [17]: > 50 µg/mL; MPI [17]: 44; IC50 [18]: > 50 µg/mL; IC80 [18]: > 50 µg/mL; MPI [18]: 18; IC50 [19]: 1.06 µg/mL; IC80 [19]: 5.62 µg/mL; MPI [19]: 98; IC50 [20]: 0.234 µg/mL; IC80 [20]: 1.37 µg/mL; MPI [20]: 100

Question: What does the source list for N49P9.1 (antibody)?
Answer: IC50 [1]: 1.88 µg/mL; IC80 [1]: 17.8 µg/mL; MPI [1]: 87; IC50 [2]: > 50 µg/mL; IC80 [2]: > 50 µg/mL; MPI [2]: 17; IC50 [3]: 0.14 µg/mL; IC80 [3]: 0.647 µg/mL; MPI [3]: 99; IC50 [4]: 0.039 µg/mL; IC80 [4]: 0.148 µg/mL; MPI [4]: 100; IC50 [5]: 0.305 µg/mL; IC80 [5]: 1.64 µg/mL; MPI [5]: 96; IC50 [6]: 0.181 µg/mL; IC80 [6]: 0.874 µg/mL; MPI [6]: 100; IC50 [7]: 0.251 µg/mL; IC80 [7]: 1.23 µg/mL; MPI [7]: 100; IC50 [8]: 0.617 µg/mL; IC80 [8]: 3.03 µg/mL; MPI [8]: 100; IC50 [9]: 0.232 µg/mL; IC80 [9]: 2.06 µg/mL; MPI [9]: 100; IC50 [10]: 0.027 µg/mL; IC80 [10]: 0.075 µg/mL; MPI [10]: 100; IC50 [11]: 0.363 µg/mL; IC80 [11]: 1.15 µg/mL; MPI [11]: 100; IC50 [12]: 0.035 µg/mL; IC80 [12]: 0.12 µg/mL; MPI [12]: 100; IC50 [13]: > 50 µg/mL; IC80 [13]: > 50 µg/mL; MPI [13]: 6; IC50 [14]: 1.72 µg/mL; IC80 [14]: 19.6 µg/mL; MPI [14]: 88; IC50 [15]: 0.066 µg/mL; IC80 [15]: 0.252 µg/mL; MPI [15]: 100; IC50 [16]: 0.716 µg/mL; IC80 [16]: 2.55 µg/mL; MPI [16]: 100; IC50 [17]: 0.037 µg/mL; IC80 [17]: 0.12 µg/mL; MPI [17]: 99; IC50 [18]: 0.358 µg/mL; IC80 [18]: 1.26 µg/mL; MPI [18]: 100; IC50 [19]: 0.781 µg/mL; IC80 [19]: 3.54 µg/mL; MPI [19]: 100; IC50 [20]: 0.029 µg/mL; IC80 [20]: 0.106 µg/mL; MPI [20]: 100
